Assay results published in the supplement of paper PMC9170038.

Test system: MS2 coat protein
Test: apparent KD of MS2 coat protein; designed switch direction (-1 OFF switch, 1 ON switch): -1; higher = weaker reporter binding
Method in brief: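 Transcription of designed RNA switches on Illumina chips was done by stalled E. coli RNA polymerase. SNAP-549-labelled MS2 coat protein was then titrated in doubling steps from 0.7 or 1.5 nM to 3 µM, with steps of 0.8–1.5 h at the lowest and 10–20 min at the highest concentration. The per-design median over clusters of curve-fitted normalised fluorescence is reported as apparent KD.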

[1] = input ligand: microRNA oligo, concentration not stated
[2] = Eterna round: R95, input ligand: microRNA oligo, concentration not stated
[3] = Eterna round: R95, input ligand: FMN 200 uM
[4] = Eterna round: R95, input ligand: none

| Sequence | apparent KD of MS2 coat protein (input ligand: FMN 200 uM) [nM] | apparent KD of MS2 coat protein [1] [nM] | apparent KD of MS2 coat protein (input ligand: none) [nM] | apparent KD of MS2 coat protein [2] [nM] | apparent KD of MS2 coat protein [3] [nM] | apparent KD of MS2 coat protein [4] [nM] |
| --- | --- | --- | --- | --- | --- | --- |
| CCGGCGUGGUGCGGUUGUCGUUCGACAUGAGGAUCACCCAUGUAGGAUAUGCGCGUGGUCGCGCCGCAGAAGGGCAUCGUUUGG [Random, 15% A] (Eterna round: R96, puzzle: Exclusion NG 3) | 10.7 | 10.7 | 14.5 |  |  |  |
| UACAUGAGGAUCACCCAUGUUUUGUCGUGUAUGGUAUUUAUCUAGGAUAUCAAUUGUUUUAUUUAUGAGAAGGAGAAUAUUAAU [JMF's solution 56] (Eterna round: R96, puzzle: Exclusion NG 3) |  | 24.8 |  |  |  |  |
| ACAUGUAAUGCAGGAUAUUUUACACAUGAGGAUCACCCAUGUGACCAGAGGAAUUGCUAUGAGUAAAAGAAGGGUAUGUACAUG [Ex NG2 #57] (Eterna round: R96, puzzle: Exclusion NG 2) |  | 53.9 |  |  |  |  |
| GAUCAUGCAGGAUAUACAUAAACCAUGAAAACAUGGCUCAAACAUGAGGAUCACCCAUGUAGAAGGGCAUGAUC [Omei Ex2 A19] (Eterna round: R97, puzzle: Exclusion 2) | 69.1 |  | 31.5 |  |  |  |
| AAGGCGGUAGGAUAUACAUGAGGAUCACCCAUGUGUCGCAUAAUCACAGCAGUACUCUGUAGAAGGACCGUCAG [Eternabot (L2) Solution 100] (Eterna round: R97, puzzle: Exclusion 3) | 457 |  | 114 |  |  |  |
| UUACUCCUCGCUUGGUCACACAUGAGGAUCACCCAUGUGGGAUGCCAUGGCGUCUCAUCAAGCUUCUUUUGCUCGUG [Eternabot (Original) Solution 26] (Eterna round: R97, puzzle: Sensor, turn-off variant 1) | 20.9 |  | 23.8 |  |  |  |
| GACUUCUCUGAGGAUAUUGCAUCAUACGAUAAAUAAGAAGGCAGAACAUGAGGAUCACCCAUGUGGGUUUUUAG [Bingo-Bango-32] (Eterna round: R97, puzzle: Exclusion 6) | 135 |  | 68.6 |  |  |  |
| CCGGAAAUGCAGGAUAUCGUAUCGGAAACGAUACGAGAAGGGUAUACAUGAGGAUCACCCAUGUGUCCUACCGG [Fiskers Ex 6 - 21] (puzzle: Exclusion 6) |  |  |  | 20.6 |  |  |
| AUCAGCUCGUGAGGAUAUACAUCACUGCUUCGGCAGUGUAUUAAGAUCACAUGAGGAUCACCCAUGUAGAAGGCACGAGCUGAU [ENG2/2-A3] (Eterna round: R96, puzzle: Exclusion NG 2) | 437 | 31.7 | 38.3 |  |  |  |
| AACCUACAUGAGGAUCACCCAUGUGAGGAUAUAUUGGUAUUUAUAUUAUUUUUUAGAGGUAGAAGGCGCGUGAU [JR_Exc1_Sub021] (Eterna round: R97, puzzle: Exclusion 1) | 14.2 |  | 14.2 |  |  |  |
| UCCGAACAUGAGGAUCACCCAUGUCAGGAUAUAUUAAAGAAAGCCCGCGAAUGUGGGUAUAGAAGGGACAUGAA [Zaatinxe] (Eterna round: R97, puzzle: Exclusion 1) | 15.8 |  | 15.6 |  |  |  |
| AAUUAGUCAGGAUAUACAUGAGGAUCACCCAUGUAAACUUUUAGUUUAAUUUGAAUGUGUAGAAGGGACAUUUA [Ex3 #47] (Eterna round: R97, puzzle: Exclusion 3) | 18.9 |  | 22.2 |  |  |  |
| CCACUGUCAGGAUAUCGUGCAUAACGUUUACAUUUUAUGUGCGAGAAGGGACAUGAGGAUCACCCAUGUAAACG [Omei Ex4 A28PK2] (Eterna round: R97, puzzle: Exclusion 4) | 206 |  | 808 |  |  |  |
| UCAAGUAUGUAGGAUAUCGAUGUCUUCGGACAUCGAGAAGGACGUACAUGAGGAUCACCCAUGUAACUUGCAUG [Exclusion 6 - B - 10:a] (puzzle: Exclusion 6) |  |  |  | 55.2 |  |  |
| GGUACUAACACGAAAGUGUUAGUACAAUAAGCUUGUGAAACAUGAGGAUCACCCAUGUCCUCAUAAGCUCGUCUUAG [salish99_TOv2_r3_005] (puzzle: Sensor v3, turn-off variant 2) |  |  |  | 392 | 13.4 | 12.3 |
| GAAAAGGUAGGAUAUACUAAAAAAAAGGGUAGAAAAAAAACACAUGAGGAUCACCCAUGUAGAAGGACCAAAAG [salish99_ex2_r3_058] (puzzle: Exclusion 2) |  |  |  | 31.8 | 48.2 | 20.8 |
| AAAACAAACGAAGGAUAUGCGCGAAAAUGACUAGCAGAAGGUCGACACGGGCGGAUCCGACAUGAGGAUCACCCAUGUAAAACU [Tied] (Eterna round: R96, puzzle: Exclusion NG 1) | 1200 | 389 | 490 |  |  |  |
| CACCGUUACUGAGGAUAUGGCACAUGAGGAUCACCCAUGUAAUAAAUGAGAAUUUCGGAUGUAUUCCAGAAGGCAGUAACCGGC [Ostricism 69 - Jieux - Exclusion NG 2] (Eterna round: R96, puzzle: Exclusion NG 2) | 30 | 23.3 | 27.1 |  |  |  |

| Sequence | apparent KD of MS2 coat protein (input ligand: FMN 200 uM) [nM] | apparent KD of MS2 coat protein [1] [nM] | apparent KD of MS2 coat protein (input ligand: none) [nM] | apparent KD of MS2 coat protein [2] [nM] | apparent KD of MS2 coat protein [3] [nM] | apparent KD of MS2 coat protein [4] [nM] |
| --- | --- | --- | --- | --- | --- | --- |
| CAGUACUACAAGCUUCGGGACAUGAGGAUCACCCAUGUUCGUCUUAUUGAUCUAGGUACGCUGACGUACCUAGAUCU [JL-sv1-2.13 Brourd mod] (puzzle: Sensor v3, turn-off variant 1) |  |  |  | 32.4 | 18.6 | 16.1 |
| GGUGGACAUGAGGAUCACCCAUGUGAGGAUAUCGGCUGGUGCGUGGUGGCUGGCAUCUCGAGAAGGCACAUAGU [Exclusion 1 V67] (puzzle: Exclusion 1) |  |  |  | 70.5 |  |  |
| AGAGAGAUAGGAUAUACGUGGUUUUCUCAGGUCUAAGUUCAACAUGAGGAUCACCCAUGUAGAAGGAUCAAAAG [EX2 C.14] (Eterna round: R97, puzzle: Exclusion 2) | 690 |  | 156 |  |  |  |
| GGCUAGUCAGGAUAUACGAACAUGUCAAAAGACGUGAAGGGACAUGAGGAUCACCCAUGUAGAAGGGACUAGCU [salish99_ex2_r3_003] (puzzle: Exclusion 2) |  |  |  | 27.9 |  |  |
| ACCUCACAUGAGGAUCACCCAUGUCAGGAUAUCUUUUAUUACAGCAAUCCUGUCGCUGAGAGAAGGGACAUUAA [EX1 #25] (Eterna round: R97, puzzle: Exclusion 1) | 33.8 |  | 28.1 |  |  |  |
| GUCACUAGAGGAUAUACAAUGGUAUAUGAUCCUAGAGACAAACAUGAGGAUCACCCAUGUAGAAGGCUAGUAAA [Exclusion 2 - 1] (puzzle: Exclusion 2) |  |  |  | 153 | 32.1 | 89.5 |
| AUGGACGCAGGAUAUACAUGAGGAUCACCCAUGUGAGGUUGGUAAGUAGGAAGUGAAGGUAGAAGGGCGAGAGU [JR_Exclu3_Sub098] (puzzle: Exclusion 3) |  |  |  | 84.2 | 209 | 76.8 |
| UUUUACAUAGGAUAUAGUUUCUUUUACAUGAGGAUCACCCAUGUUUCUCUUCUCUCUCUUCUAGAAGGAUGUUUCU [JR_E5_Sub013] (puzzle: Exclusion 5) |  |  |  | 33.5 |  |  |
| AGCGUGUGAGAAGGAUAUCGACCCGAGACAGAUUGAGAAGGUCUCACAUGAGGAUCACCCAUGUGGACAGGGCGAGCUCCAGUC [Eternabot solution 11] (Eterna round: R96, puzzle: Exclusion NG 1) | 28.3 | 14.6 | 23.4 |  |  |  |
| AGUUGGGCAGGAUAUACAUGAGGAUCACCCAUGUGAGAGAUACUAGUGAGGUCGAUUAGUAGAAGGGCCUGACA [Mat X3R4 m2] (Eterna round: R97, puzzle: Exclusion 3) | 251 |  | 40.9 |  |  |  |
| CAGUACUGAGGAUAUACAUGAGGAUCACCCAUGUGAGCGAUACUAGUGAGGUCGAUUAGUAGAAGGCAGUACUG [Mat X3R4 m33] (Eterna round: R97, puzzle: Exclusion 3) | 353 |  | 32 |  |  |  |
| AUGUAGGAAGGAUAUGCGUCGGCAUGAAAUCCUUGUUGGCCACAUGAGGAUCACCCAUGUAGAAGGUUCACGUA [Eternabot (L2) Solution 10] (Eterna round: R97, puzzle: Exclusion 2) | 48.8 |  | 52.7 |  |  |  |
| UCGGCGCGAGGAUAUGCGGUUCCUUCUUCGGGCCGGAGCGUACAUGAGGAUCACCCAUGUAGAAGGCGCGCCGC [Apr-15 SS2-37] (puzzle: Exclusion 2) |  |  |  | 12.6 |  |  |
| AGAACACAUGAGGAUCACCCAUGUCAGGAUAUCGACUGAACAGCUUCGGCUGUUCAGUCGAGAAGGGACAAUUA [Brourdxlusion 6 - Jieux - Exclusion 1] (Eterna round: R97, puzzle: Exclusion 1) | 120 |  | 55.8 |  |  |  |
| UUUAAUUUUUUUUUUUUACAAGCUUUUUGCUCGUCUUAUACAUGAGGAUCACCCAUGUGGGUAGAGAGUAAAUUAUC [JMF 59] (puzzle: Sensor v3, turn-off variant 2) |  |  |  | 80.6 | 16.7 | 16.1 |
| UAUCGGGACUGAGGAUAUUCGUUCGAACACGAAGAAGAAGGUAGUGUCAGGGACAUGAGGAUCACCCAUGUGAUUUCAGUCCCA [JL ViennaUCT Erinle mod 4] (Eterna round: R96, puzzle: Exclusion NG 1) | 133 | 96.8 | 139 |  |  |  |
| GAAAAGGCAGAGGAUAUUUCAGGUCAAAGCUGCAAAGAAGGCUGCACAUGAGGAUCACCCAUGUGGUCUUAAAA [Mod of Quesina 6 - Jieux - Exclusion 6] (Eterna round: R97, puzzle: Exclusion 6) | 150 |  | 22.6 |  |  |  |
